The record followed here is US20150056222A1.

This experiment concerns the target mouse PRLR on HEK293 cells (mouse) (UniProt Q08501). In words: FACS, HEK293/mPRLR cells. (Flow cytometry measures light scatter and fluorescence of single cells or particles in a stream.)

mouse PRLR on HEK293 cells (mouse), sequence (Q08501 20-608): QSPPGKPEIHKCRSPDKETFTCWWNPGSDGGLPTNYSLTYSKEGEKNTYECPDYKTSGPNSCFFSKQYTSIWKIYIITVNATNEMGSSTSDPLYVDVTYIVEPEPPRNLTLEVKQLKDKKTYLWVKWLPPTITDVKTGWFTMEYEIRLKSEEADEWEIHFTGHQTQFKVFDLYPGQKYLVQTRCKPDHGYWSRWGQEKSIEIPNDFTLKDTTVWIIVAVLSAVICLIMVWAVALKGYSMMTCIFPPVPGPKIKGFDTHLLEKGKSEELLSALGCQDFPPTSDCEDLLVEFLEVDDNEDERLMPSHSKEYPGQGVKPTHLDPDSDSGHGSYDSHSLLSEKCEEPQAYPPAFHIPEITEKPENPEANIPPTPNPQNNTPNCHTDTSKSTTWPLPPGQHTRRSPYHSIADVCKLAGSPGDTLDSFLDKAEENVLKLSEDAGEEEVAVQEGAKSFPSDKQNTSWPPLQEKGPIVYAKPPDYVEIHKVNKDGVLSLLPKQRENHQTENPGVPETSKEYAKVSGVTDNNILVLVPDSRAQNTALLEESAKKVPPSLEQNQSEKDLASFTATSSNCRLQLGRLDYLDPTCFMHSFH

B1: H1H6801P (antibody, human IgG1, V domains shown)
VH: QVQLQQSGPGLVKPSQTLSLTCVISGDSVSSNTAWNWVRQSPSRGLEWLGRTYYRSKWYNDYAVSVKSRITINPDTSKNQFSLLMNSVTPEDTAVYYCARVVRGLNYFDYWGQGTLVTVSS
VL: DIVMTQSPDSLAVSLGERATINCKSSQSVLYNSNNKNYLAWYQQKPGQPPKLLIYWSSSRESGVPDRFSGSGSGTDFTLTISGLQAEDVAIYYCQQYSTIPYTFGQGTKLEIK
B1 displayed an FACS Cell Binding (Fold Above Background) (fold above background) of 56.
